{"source": "paper PMC7052086", "about": "“Functional characterization of NADPH-cytochrome P450 reductase and cinnamic acid 4-hydroxylase encoding genes from Scoparia dulcis L” (Botanical Studies, 2020)", "system": "NC(=O)C1=CN([C@@H]2O[C@H](COP(=O)(O)OP(=O)(O)OC[C@H]3O[C@@H](n4cnc5c(N)ncnc54)[C@H](OP(=O)(O)O)[C@@H]3O)[C@@H](O)[C@H]2O)C=CC1", "experiment": "purified protein", "format": "biochemical, Scoparia dulcis", "settings": "100 μM cytochrome c, varied NADPH; 28 °C, pH 7.5 in table footnote (methods: 25 °C, 50 mM Tris pH 7.4)"}
{"substance": "SdCPR (Scoparia dulcis)", "values": [{"measurement": "Km", "value": "4.6 ± 0.9", "unit": "µM"}, {"measurement": "Vmax", "value": 2.3, "unit": "µmol/min/mg"}, {"measurement": "kcat", "value": "2.96 ± 0.13", "unit": "s⁻¹"}, {"measurement": "kcat/Km", "value": 665000, "unit": "M⁻¹ s⁻¹"}]}
